{
  "source": "patent US20040120897A1",
  "about": "“Method for administering insulinotropic peptides” (priority 1998, published 2004)",
  "origin": "cited, not measured here",
  "conditions": "calculated, background statement",
  "data": [
    {"substance": "parathyroid hormone (1-34): peptide hormone cited in the background for its pulmonary absorption value", "values": [
      {"measurement": "absorption value after delivery through the lungs", "result": "fifteen"}
    ]},
    {"substance": "glycosylated α1-antitrypsin: protein cited in the background for its pulmonary absorption value", "values": [
      {"measurement": "absorption value after delivery through the lungs", "result": 48, "unit": "h"}
    ]}
  ]
}
